From patent publication US20240139265A1 (published 2024)

target: T1, HLA-B*08:01 class I complex (biotinylated heavy chain with beta2-microglobulin) (human); assay: UV peptide exchange + HLA class I ELISA; % of Pos control peptide
T1 construct: Conditional HLA class I complex loaded with a UV-labile peptide that is exchanged for the test peptide
Procedure: The exchange efficiency between the peptide of interest and Pos was analyzed using an HLA class I ELISA.
The UV control represented UV-irradiation of conditional HLA class I complex in the absence of a rescue peptide. […] The HLA class I ELISA is an enzyme immunoassay based on the detection of beta2-microglobulin (B2M) of (peptide-stabilized) HLA class I complexes. To this end streptavidin was bound onto polystyrene microtiter wells. […] Non-bound material was removed by washing. Subsequently, horseradish peroxidase (HRP)-conjugated antibody to human B2M was added. […] In the latter case B2M was removed during the washing step. After removal of non-bound HRP conjugate by washing, a substrate solution was added to the wells. A coloured product formed in proportion to the amount of intact HLA complex present in the samples. After the reaction was terminated by the addition of a stop solution, absorbance was measured in a microtiter plate reader.

Binder	exchange rate with Pos peptide
FLFLLLPLS (Synthetic 9-mer) [P87 9-mer neoantigen peptide FLFLLLPLS (AR-Intron splice variant)]	3.1%
STRRAVRRM (Synthetic 9-mer) [P16 9-mer neoantigen peptide STRRAVRRM (MSMB-NCOA4 fusion)]	6.2%
NSKMALNSL (Synthetic 9-mer) [P35 9-mer neoantigen peptide NSKMALNSL (TMPRSS2-ERG fusion)]	13.7%
YLRRQKRLK (Synthetic 9-mer) [P60 9-mer neoantigen peptide YLRRQKRLK (FOXA1.p.F266L missense)]	10.2%
IVWWCPMSR (Synthetic 9-mer) [P98 9-mer neoantigen peptide IVWWCPMSR (TP53 (R213D) frameshift)]	2.4%
CYLGRQKRF (Synthetic 9-mer) [P61 9-mer neoantigen peptide CYLGRQKRF (FOXA1.p.R261G missense)]	3.6%
RAKCKFSIL (Synthetic 9-mer) [P56 9-mer neoantigen peptide RAKCKFSIL (SPOP(F102C) missense)]	38%
NMVENGCYL (Synthetic 9-mer) [P59 9-mer neoantigen peptide NMVENGCYL (FOXA1 (F254V) missense)]	5.5%
CPMSRLRLA (Synthetic 9-mer) [P46 9-mer neoantigen peptide CPMSRLRLA (TP53 (R213D) frameshift)]	14.5%
RAVRRMNTF (Synthetic 9-mer) [P17 9-mer neoantigen peptide RAVRRMNTF (MSMB-NOCA4 fusion)]	9%
FFKRAAEGF (Synthetic 9-mer) [P77 9-mer neoantigen peptide FFKRAAEGF (AR-V3 splice variant)]	3.4%
LLERNSFEV (Synthetic 9-mer) [P73 9-mer neoantigen peptide LLERNSFEV (TP53 (G266E) missense)]	2.6%
FPVGAEGTF (Synthetic 9-mer) [P27 9-mer neoantigen peptide FPVGAEGTF (FAM126B-ORC2 fusion)]	6.4%
HVPKILSGK (Synthetic 9-mer) [P58 9-mer neoantigen peptide HVPKILSGK (AR (Q903H) missense)]	5.3%
QLIAMDSAI (Synthetic 9-mer) [P22 9-mer neoantigen peptide QLIAMDSAI (SLC45A3-ELK4 fusion)]	3.9%
RVGNCKHLK (Synthetic 9-mer) [P82 9-mer neoantigen peptide RVGNCKHLK (AR-V7 splice variant)]	1.4%
IQYSCMGLM (Synthetic 9-mer) [P50 9-mer neoantigen peptide IQYSCMGLM (AR (W742C) missense)]	4.7%
IPVLTRWPL (Synthetic 9-mer) [P19 9-mer neoantigen peptide IPVLTRWPL (TMEM222-LOC644961 fusion)]	14.5%
LMAQRLLLR (Synthetic 9-mer) [P97 9-mer neoantigen peptide LMAQRLLLR (FOXRED2-TXN2 fusion)]	2.7%
GVLRRLLCR (Synthetic 9-mer) [P37 9-mer neoantigen peptide GVLRRLLCR (TSTD1-F11R fusion)]	3.3%
